Results: patent US20250296971A1, “GASTRIC INHIBITORY PEPTIDE RECEPTOR LIGANDS” (priority 2021, published 2025)
One block for each binder: values may come before it. *1 amine or outer side, *2 acyl side, *3 side chain or, on linkers, in order; H or OH if unused. Bridges are numbered along the chain shown (N, C = ends). [ ]: non-standard residue; d: D form. The star is where a group is joined. dE(AGLU) = D-glutamic acid bearing 1-amino-1-deoxy-D-glucitol; Pro(trans-4-NH2) = O=C([C@@H]1C[C@@H](N[*:3])CN1[*:1])[*:2]; DOTA = O=C(O)CN1CCN(CC(=O)O)CCN(CC(=O)*)CCN(CC(=O)O)CC1; 2Lut = 2,6-lutidylidene bridge between two thiols; Trp(5-Cl) = N[C@@H](Cc1c[nH]c2ccc(Cl)cc12)C(=O)O; Pyridine(2,6-diCH2) = c1cc(C[*:1])nc(C[*:2])c1; APAc = 4-amino-1-carboxymethylpiperidine; Glutaryl = O=C(CCCC(=O)[*:2])[*:1]; AGLU = 1-amino-1-deoxy-D-glucitol; Hyp = O=C(O)[C@@H]1C[C@@H](O)CN1; dGlu(AGLU) = not defined here; glu(AGLU) = not defined here; hSer = N[C@@H](CCO)C(=O)O; Api = NC1(C(=O)O)CCNCC1

Tests used:
[1] = biological target: biotinylated extracellular domain of the human GIP receptor (bioGIPR) (human) (UniProt P48546); experiment: SPR single cycle kinetics, bioGIPR captured on chip; category B: pKD 8.1-9.0
[2] = biological target: human Gastric Inhibitory Peptide Receptor (human) (UniProt P48546); experiment: FACS competition with GIP-057 on CHO-K1-hGIPR cells; pIC50 category B: 7.1-8.0
[3] = biological target: biotinylated extracellular domain of the human GIP receptor (bioGIPR) (human) (UniProt P48546); experiment: SPR single cycle kinetics, bioGIPR captured on chip; category D: t1/2 <2.0 min
[4] = biological target: human gastric inhibitory polypeptide receptor (human GIPR) (human) (UniProt P48546); experiment: radioligand binding assay, 111In-labeled compound on CHO cells expressing GIPR, 6 h 37 °C; pKD category A = pKD > 9.5
dog GIPR (dog) = experiment: radioligand binding assay, 111In-labeled compound on CHO-VGT cells expressing dog GIPR, 6 h 37 °C; pKD category A = pKD > 9.5
mouse GIPR (mouse) = mouse GIPR (mouse) (UniProt Q0P543); experiment: radioligand binding assay, 111In-labeled compound on CHO-VGT cells expressing mouse GIPR, 6 h 37 °C; pKD category C = pKD < 9.0
rat GIPR (rat) = rat GIPR (rat) (UniProt P43219); experiment: radioligand binding assay, 111In-labeled compound on CHO-VGT cells expressing rat GIPR, 6 h 37 °C; pKD category B = pKD between 9.0 and 9.5
Chain of rat GIPR (rat) (P43219 19-455): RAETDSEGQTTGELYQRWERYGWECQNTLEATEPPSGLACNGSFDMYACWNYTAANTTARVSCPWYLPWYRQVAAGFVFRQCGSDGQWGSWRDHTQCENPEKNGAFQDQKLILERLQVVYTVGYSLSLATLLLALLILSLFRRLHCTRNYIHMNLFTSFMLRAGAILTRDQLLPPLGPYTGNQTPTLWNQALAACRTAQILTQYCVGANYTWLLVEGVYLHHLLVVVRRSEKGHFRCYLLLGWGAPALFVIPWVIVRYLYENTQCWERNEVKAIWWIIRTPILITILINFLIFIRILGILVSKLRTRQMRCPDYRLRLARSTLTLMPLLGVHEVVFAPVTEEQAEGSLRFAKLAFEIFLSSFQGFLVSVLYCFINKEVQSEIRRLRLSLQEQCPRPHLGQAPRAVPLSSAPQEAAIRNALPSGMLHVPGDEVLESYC

Chain of human Gastric Inhibitory Peptide Receptor (human) (P48546 22-466 limits assumed): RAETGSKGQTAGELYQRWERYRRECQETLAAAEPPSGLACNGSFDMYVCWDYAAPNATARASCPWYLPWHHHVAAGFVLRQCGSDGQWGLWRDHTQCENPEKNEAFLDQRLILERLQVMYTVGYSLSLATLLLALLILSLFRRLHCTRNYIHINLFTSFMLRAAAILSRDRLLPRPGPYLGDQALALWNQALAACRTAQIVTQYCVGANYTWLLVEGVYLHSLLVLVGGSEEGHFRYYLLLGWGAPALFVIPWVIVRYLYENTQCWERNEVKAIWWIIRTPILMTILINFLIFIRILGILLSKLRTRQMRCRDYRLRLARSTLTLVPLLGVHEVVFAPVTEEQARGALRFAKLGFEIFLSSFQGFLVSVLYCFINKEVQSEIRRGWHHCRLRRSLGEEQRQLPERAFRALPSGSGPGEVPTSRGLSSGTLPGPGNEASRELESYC
Chain of biotinylated extracellular domain of the human GIP receptor (bioGIPR) (human) (P48546 24-138 limits assumed): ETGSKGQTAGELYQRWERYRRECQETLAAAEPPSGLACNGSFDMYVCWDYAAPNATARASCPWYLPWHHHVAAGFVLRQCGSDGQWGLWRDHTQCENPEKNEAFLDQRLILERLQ
Chain of human gastric inhibitory polypeptide receptor (human GIPR) (human) (P48546 22-466 limits assumed): as the sequence (P48546 22-466 limits assumed) above
Chain of mouse GIPR (mouse) (Q0P543 19-460): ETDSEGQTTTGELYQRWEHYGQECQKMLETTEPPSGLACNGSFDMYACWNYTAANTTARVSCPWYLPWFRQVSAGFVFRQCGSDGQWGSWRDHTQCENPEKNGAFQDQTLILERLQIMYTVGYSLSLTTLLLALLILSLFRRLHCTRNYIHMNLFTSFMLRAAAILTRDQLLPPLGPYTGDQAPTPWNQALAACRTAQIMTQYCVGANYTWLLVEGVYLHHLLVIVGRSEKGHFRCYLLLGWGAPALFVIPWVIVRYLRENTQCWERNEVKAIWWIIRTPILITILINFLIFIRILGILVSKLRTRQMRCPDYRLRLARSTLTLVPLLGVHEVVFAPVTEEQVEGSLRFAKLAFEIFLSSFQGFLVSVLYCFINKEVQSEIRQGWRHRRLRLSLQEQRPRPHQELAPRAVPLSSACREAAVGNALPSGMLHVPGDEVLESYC
Chain of dog GIPR (dog) (chain, as listed by the source limits assumed, form in doubt): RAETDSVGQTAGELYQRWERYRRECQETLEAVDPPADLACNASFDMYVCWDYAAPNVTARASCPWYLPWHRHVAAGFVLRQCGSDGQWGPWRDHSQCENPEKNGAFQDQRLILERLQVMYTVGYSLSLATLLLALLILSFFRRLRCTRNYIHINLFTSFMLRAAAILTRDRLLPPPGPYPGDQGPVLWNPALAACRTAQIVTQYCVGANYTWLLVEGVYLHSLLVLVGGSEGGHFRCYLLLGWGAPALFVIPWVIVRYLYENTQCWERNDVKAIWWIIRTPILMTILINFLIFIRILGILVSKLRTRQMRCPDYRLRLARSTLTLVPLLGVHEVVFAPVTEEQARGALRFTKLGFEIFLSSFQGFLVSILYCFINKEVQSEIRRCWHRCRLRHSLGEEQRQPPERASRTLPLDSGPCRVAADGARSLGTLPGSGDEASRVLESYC

pKD [1]: 8.1 to 9 pkd
pIC50 [2]: 7.1 to 8 pic50
t1/2 [3]: < 2 min
B1: AGLU-Glutar-APAc-Ser-Trp-5Clw-Tap-Hse-leu-[Cys(2Lut)-Apc(DOTA)-Leu-Ile-Cys]-APAc-glu(AGLU)-NH2 (peptide)
peptide: {AGLU-Glutaryl-APAc}-SW[Trp(5-Cl)][Pro(trans-4-NH2)][hSer][dL]C[Api](DOTA)LIC-{APAc-glu(AGLU)-NH2}
modifications: linker 7-11 via 2Lut; reading uncertain

pKD [4]: > 9.5 pkd
pKD (dog GIPR (dog)): > 9.5 pkd
pKD (mouse GIPR (mouse)): < 9 pkd
pKD (rat GIPR (rat)): 9 to 9.5 pkd
B2: 111In-labeled AGLU-Glutar-Asp-Trp-5Clw-Tap-Glu-leu-[Cys(2Lut)-Apc(DOTA)-Leu-Ile-Cys]-APAc-glu(AGLU)-NH2 (111In-GIP-001) (peptide)
peptide: {AGLU-Glutaryl}-DW[Trp(5-Cl)][Pro(trans-4-NH2)]E[dL]C[Api](DOTA)LIC-{APAc-dE(AGLU)-NH2}
modifications: linker 7-11 via Pyridine(2,6-diCH2); also: DOTA complexed with 111In

pKD [1]: 8.1 to 9 pkd
pIC50 [2]: 7.1 to 8 pic50
t1/2 [3]: < 2 min
B3: AGLU-Glutar-APAc-Hse-Trp-5Clw-Hyp-Glu-leu-[Cys(2Lut)-Apc(DOTA)-Leu-Ile-Cys]-APAc-glu(AGLU)-NH2 (peptide)
peptide: {AGLU-Glutaryl-APAc}-[hSer]W[Trp(5-Cl)][Hyp]E[dL]C[Api](DOTA)LIC-{APAc-dE(AGLU)-NH2}
modifications: linker 7-11 via Pyridine(2,6-diCH2)

pKD [4]: > 9.5 pkd
B4: 111In-labeled AGLU-Glutar-Asp-Trp-5Clw-Hyp-Glu-leu-[Cys(2Lut)-Apc(DOTA)-Leu-Ile-Cys]-APAc-glu(AGLU)-NH2 (111In-GIP-002) (peptide)
peptide: {AGLU-Glutaryl}-DW[Trp(5-Cl)][Hyp]E[dL]C[Api](DOTA)LIC-{APAc-dGlu(AGLU)-NH2}
modifications: linker 7-11 via Pyridine(2,6-diCH2); reading uncertain; also: DOTA complexed with 111In

pKD [1]: 8.1 to 9 pkd
pIC50 [2]: 7.1 to 8 pic50
t1/2 [3]: < 2 min
B5: AGLU-Glutar-APAc-Ser-Trp-5Clw-Tap(AGLU-Glutar)-Hse-leu-[Cys(2Lut)-Apc(DOTA)-Leu-Ile-Cys]-APAc-glu(AGLU)-NH2 (peptide)
peptide: SWXXXXCXLIC
modifications: AGLU-Glutar-APAc; 5Clw; Tap(AGLU-Glutar); Hse; D-leu; Apc(DOTA); 2Lut bridge Cys-Cys; APAc; D-glu(AGLU); C-term NH2
